Test [1] deals with extracellular domain of IL-13-RA2 human recombinant receptor protein (human) (UniProt Q14627). Kind of test: ELISA. (An ELISA detects its analyte on a solid surface through an enzyme-linked reagent.)
The target in test [2] is DT390-IL-13 single-chain fusion cytotoxin (monomer) (Corynebacterium diphtheriae | not stated). The test can be described thus: SEC-MALS; SEC-MALS-DLS, Superose 6 Increase 10/300 GL, 4 °C, PBS pH 7.4. Background: SEC sorts molecules by how far they enter the pores of the column.

Broadly, the EC50 is the midpoint of the concentration-response curve. For orientation: stoichiometry N means the number of molecules, sites or subunits per partner or assembly. In general, Kd refers to the concentration at which binding is half-saturated.

UniProt Q14627, sequence (Q14627 27-343): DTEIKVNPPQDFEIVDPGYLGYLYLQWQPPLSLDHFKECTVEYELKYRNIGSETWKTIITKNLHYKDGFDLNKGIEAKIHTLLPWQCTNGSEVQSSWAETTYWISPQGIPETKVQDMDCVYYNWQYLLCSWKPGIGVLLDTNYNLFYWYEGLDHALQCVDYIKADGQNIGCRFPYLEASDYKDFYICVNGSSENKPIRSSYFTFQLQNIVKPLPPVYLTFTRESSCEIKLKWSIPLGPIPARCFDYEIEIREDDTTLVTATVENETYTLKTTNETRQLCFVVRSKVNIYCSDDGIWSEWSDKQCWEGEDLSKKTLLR

On to “DT390-IL-13 single-chain fusion cytotoxin, dimer (complex)”, for which the EC50 in test [1] was found to be 6.4 nM.
As for “DT390-IL-13 single-chain fusion cytotoxin, oligomers (complex)”, the EC50 in test [1] was determined as 6.8 nM.
“DT390-IL-13 single-chain fusion cytotoxin (monomer)” returned a stoichiometry N in test [2] of 2. In test [1], the EC50 stood at 1.9 nM and the Kd was determined as 0.0674 nM.

(Values after publication PMC9406121.)
